Results taken from the supplement of paper PMC9170038.

System: MS2 coat protein
Test: apparent KD of MS2 coat protein; designed switch direction (-1 OFF switch, 1 ON switch): -1; higher = weaker reporter binding
Summary of the method: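 For each design, the apparent KD is the median over clusters of curves fitted to normalised cluster fluorescence. Clusters held RNA switches with common flanks, transcribed on Illumina chips by stalled E. coli RNA polymerase. These were titrated with SNAP-549-labelled MS2 coat protein, doubling from 0.7 or 1.5 nM to 3 µM, without input, with 200 uM small-molecule ligand, or with an oligonucleotide input.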

[1] = input ligand: microRNA oligo, concentration not stated
[2] = Eterna round: R95, input ligand: FMN 200 uM
[3] = Eterna round: R95, input ligand: microRNA oligo, concentration not stated
[4] = Eterna round: R95, input ligand: none

Sequence | apparent KD of MS2 coat protein (input ligand: FMN 200 uM) [nM] | apparent KD of MS2 coat protein (input ligand: none) [nM] | apparent KD of MS2 coat protein [3] [nM] | other results
GGUACUCAAAGAGUACCAAUACGAACAUGAGGAUCACCCAUGUAGGAUAUGCUACUCAAAGAGUAGCAGAAGGACGUGAACCCU [Far Half Aptamer] (Eterna round: R96, puzzle: Exclusion NG 3) | 164 | 40.5 |  | apparent KD of MS2 coat protein [1]: 26.5 nM
GGUACUCAAAGAGUACCAAUACGAACAUGAGGAUCACCCAUGUAGGAUAUGCUACUCAAAGAGUAGCAGAAGGAUAUGAUCCAU [Far Half Aptamer v13] (Eterna round: R96, puzzle: Exclusion NG 3) |  |  |  | apparent KD of MS2 coat protein [1]: 60.5 nM
GGUACUCAAAGAGUACCAAUACGAACAUGAGGAUCACCCAUGUAGGAUAUGCUACUCAAAGAGUAGCAGAAGGAUAUGAUCGAU [Far Half Aptamer v14] (Eterna round: R96, puzzle: Exclusion NG 3) | 45.6 | 40.6 |  | apparent KD of MS2 coat protein [1]: 27.9 nM
GGUAGAGUGGUAGGAUAUCCGUCUGUUUCAGUCGGAGAAGGGCCACAGUCACUGGGUCCUAAUAUCAUGGAGACCUGAUCUACU [pwkr exNG1 F6.13] (Eterna round: R96, puzzle: Exclusion NG 1) | 785 | 385 |  | apparent KD of MS2 coat protein [1]: 337 nM
GGUCAAGAACAGAUCCGCGCUGCCAUUGACCGCUCAUUUACAUGAGGAUCACCCAUGUUUUUUGCUCAUCUUGUUAC [Usdila] (puzzle: Sensor v3, turn-off variant 2) |  |  | 62.2 | apparent KD of MS2 coat protein [2]: 20.2 nM; apparent KD of MS2 coat protein [4]: 19.8 nM
GGUCAGAUGGUAGGAUAUCCAUAUCGAGUGACCCUUUCAUAACAUGAGGAUCACCCAUGUUGGUGGGAGAAGGGCCGUACGGCG [salish99_ExNG02_R04_019] (Eterna round: R96, puzzle: Exclusion NG 2) | 17.2 | 22 |  | apparent KD of MS2 coat protein [1]: 14.4 nM
GGUCCACGAGGAUAUCGAUUAUAGUACAUGAGGAUCACCCAUGUUGUCCAGGUUUCGUUUCGAGAAGGCGUGGGUU [LRO-Ex5-01] (puzzle: Exclusion 5) |  |  | 88.1 | 
GGUCGCAGGACAGGAUAUCCAAGCGAUCUAACAUGAGGAUCACCCAUGUGCUAAGGCAGAGGGACGGAGAAGGGUCGAUCGGCC [Inqusodire] (Eterna round: R96, puzzle: Exclusion NG 2) | 166 | 58.3 |  | apparent KD of MS2 coat protein [1]: 42.4 nM
GGUCGGCGAGGAUAUACAUGAGGAUCACCCAUGUGAUAGAUUGCACGCGUACGUGUAUGUAGAAGGCGCUGACG [JL-ex3-3.30 salish99 mod] (Eterna round: R96, puzzle: Exclusion 3) | 433 | 32.8 |  | apparent KD of MS2 coat protein [1]: 24.7 nM
GGUCGGCGAGGAUAUACAUGAGGAUCACCCAUGUGAUAGAUUGCACGCGUACGUGUAUGUAGAAGGCGCUGACG [JL-ex3-3.30 salish99 mod] (puzzle: Exclusion 3) |  |  | 29.6 | apparent KD of MS2 coat protein [2]: 811 nM; apparent KD of MS2 coat protein [4]: 32.8 nM
GGUCUGCGAGGAUAUACAUGAGGAUCACCCAUGUGAGUGAAACUAGUGAGGUCGAUUGGUAGAAGGCGCGGACG [Mat - Exclusion 3 - Mod of JL D82] (puzzle: Exclusion 3) |  |  | 63 | apparent KD of MS2 coat protein [2]: 17.7 nM; apparent KD of MS2 coat protein [4]: 17.5 nM
GGUCUGCGAGGAUAUACAUGAGGAUCACCCAUGUGCGAGAAACUAGUGAGGUCGGUUGGUAGAAGGCGCGGACG [Mat - Exclusion 3 - Mod of JL D89] (puzzle: Exclusion 3) |  |  | 14 | apparent KD of MS2 coat protein [2]: 13.9 nM; apparent KD of MS2 coat protein [4]: 32.8 nM
GGUGCGUAUGUGAGGAUAUGCUGGUCCUUGGAUCGGCAGAAGGCACAUGAGGAUCACCCAUGUGGUGUCGUUCC [salish99_Bmod_ex4_100] (puzzle: Brourd's mod of Exclusion 4) |  |  | 114 | 
GGUGCGUUUGUGAGGAUAUGCUGGUCCUUGGUUCGGCAGAAGGCACAUGAGGAUCACCCAUGUGGUGUCGUGCC [salish99_Bmod_Ex4_045] (puzzle: Brourd's mod of Exclusion 4) |  |  | 33.1 | 
GGUGCGUUUGUGAGGAUAUGCUGGUCCUUGGUUCGGCAGAAGGCACAUGAGGAUCACCCAUGUGGUGUCGUUCC [salish99_Bmod_Ex4_047] (puzzle: Brourd's mod of Exclusion 4) |  |  | 13.9 | 
GGUGGACAUGAGGAUCACCCAUGUGAGGAUAUCGGCCGGCUAGUGGUGGCUGGCUUCUCGAGAAGGCGCAUAGU [Exclusion 1 V76] (puzzle: Exclusion 1) |  |  | 46.8 | 
GGUGGACAUGAGGAUCACCCAUGUGAGGAUAUCGGCCGGUUCGUGGUGGCUGGCGUCUCGAGAAGGCACAUAGU [Exclusion 1 V69] (puzzle: Exclusion 1) |  |  | 114 | 
GGUGGACAUGAGGAUCACCCAUGUGAGGAUAUCGGCUAUCUUAUCGCUGUCGGUUGCUCGAGAAGGCACAUUGU [Exclusion 1 V96] (puzzle: Exclusion 1) |  |  | 71.2 | 

Sequence | apparent KD of MS2 coat protein (input ligand: FMN 200 uM) [nM] | apparent KD of MS2 coat protein (input ligand: none) [nM] | apparent KD of MS2 coat protein [3] [nM] | other results
GGUGGACAUGAGGAUCACCCAUGUGAGGAUAUCGGCUGGCUAGCGGCUGACGGCUGCUCGAGAAGGCGCAUUGU [Exclusion 1 V85] (puzzle: Exclusion 1) |  |  | 50.5 | 
GGUUGGCGAGGAUAUACAUGAGGAUCACCCAUGUGAGAAUAAAAAGUGAGGAAGAAAAGUAGAAGGCGCUGACG [Mat - Exclusion 3 - Mod of Salish D5] (puzzle: Exclusion 3) |  |  | 31.6 | apparent KD of MS2 coat protein [2]: 76.5 nM; apparent KD of MS2 coat protein [4]: 36.3 nM
GGUUGGCGAGGAUAUACAUGAGGAUCACCCAUGUGAGAGAAAAAAGUGAGAACGAAAAGUAGAAGGCGCUGACG [salish99-ex3-25] (Eterna round: R96, puzzle: Exclusion 3) | 315 | 98.8 |  | apparent KD of MS2 coat protein [1]: 67.5 nM
GGUUGGCGAGGAUAUACAUGAGGAUCACCCAUGUGAGAGAAAAAAGUGAGAACGAAAAGUAGAAGGCGCUGACG [salish99_ex3_r3_057] (puzzle: Exclusion 3) |  |  | 122 | apparent KD of MS2 coat protein [2]: 272 nM; apparent KD of MS2 coat protein [4]: 76.9 nM
GGUUGGCGAGGAUAUACAUGAGGAUCACCCAUGUGAGAGAAAAUAGUGAGGAAGAAAAGUAGAAGGCGCUGACG [salish99_ex3_r3_014] (puzzle: Exclusion 3) |  |  | 47.7 | apparent KD of MS2 coat protein [2]: 98.1 nM; apparent KD of MS2 coat protein [4]: 37.5 nM
GGUUGGCGAGGAUAUACAUGAGGAUCACCCAUGUGGUCCUGUGGAAAAAAAAACCUUUGUAGAAGGCGCGGGUC [salish99_ex3_r4_032] (Eterna round: R97, puzzle: Exclusion 3) | 415 | 534 |  | 
GUAAAGUGAGGAUAUGGUAAAUUAAUUAUUUAUUAAUUAAUCCAGAAGGCACAUGAGGAUCACCCAUGUAAAUG [Mat - Exclusion 4 - D94] (puzzle: Exclusion 4) |  |  | 26.5 | 
GUAACAUGCUGGUGAUCAUACAUGAGGAUCACCCAUGUAACAAGCUUUUUGUUCGUCUUAUAAGAUUACUAGUAUGU [Stov1/10-B2] (Eterna round: R97, puzzle: Sensor, turn-off variant 1) | 33 | 39.7 |  | 
GUAACAUGCUGGUGAUCAUACAUGAGGAUCACCCAUGUAACAAGCUUUUUGUUCGUCUUAUAAUUUAAGAUCACCAG [Stov1/7-B3] (Eterna round: R97, puzzle: Sensor, turn-off variant 1) | 19.8 | 21.8 |  | 
GUAAUUAAUGUAGGAUAUGCAAGGCGAACCUAAGCAGAAGGACAUGAGGAUCACCCAUGUAUUGCGGUCUGCGUUCAGAUCGCU [salish99_ExNG1_r4_009] (Eterna round: R96, puzzle: Exclusion NG 1) |  |  |  | apparent KD of MS2 coat protein [1]: 15.4 nM
GUACAACAUGAGGAUCACCCAUGUGAGGAUAUGCGAAUUUCAUCAAAAGAUGAAAUUUGCAGAAGGCACAGUAC [Omei Ex1 A8] (Eterna round: R97, puzzle: Exclusion 1) | 26.6 | 32.8 |  | 
GUACCAAUUGUAGGAUAUGGAUCCGAUUAGGAUCCAGAAGGACAUGAGGAUCACCCAUGUACAUGAGGAUCACCCAUUAGGUAC [Fiskers ExNg1 - 12] (Eterna round: R96, puzzle: Exclusion NG 1) | 53.2 | 46.1 |  | apparent KD of MS2 coat protein [1]: 30.9 nM
GUACUAGAAUAUCAGUCGCACAUGAGGAUCACCCAUGUCAUGGGUAGAUAAAUAAAUAAAGAUACUGCUCGUCUUAU [Cac sensor turnoff var1 sub1] (Eterna round: R97, puzzle: Sensor, turn-off variant 1) | 277 | 399 |  | 
GUACUGACAGGAUAUACAUGAGGAUCACCCAUGUCCUUAUGCUGACAAAAGUCAGCAAGUAGAAGGGUCUGUAC [Omei Ex3 Model Bachelor's Dilema v2] (Eterna round: R97, puzzle: Exclusion 3) | 1270 | 88.4 |  | 
GUACUGACAGGAUAUACAUGAGGAUCACCCAUGUGCCUUAUCGCUACAAAAGUAGCGGGUAGAAGGGUCUGUAC [Omei Ex3 Model Bachelor's Dilema v19] (Eterna round: R97, puzzle: Exclusion 3) | 41.8 | 16.4 |  | 
GUAGAGUAAGGAUAUACAGAAUAGGAUAGAAUGGUUAGAAUGUAGAAGGUACAUGAGGAUCACCCAUGUAAUGU [Excluse me!!!! 8 - Jieux - Exclusion 4] (puzzle: Exclusion 4) |  |  | 19.7 | 
GUAGAGUAAGGAUAUCAAGAAUAGGAUAGAAUGGUUAGAAUUGAGAAGGUACAUGAGGAUCACCCAUGUAAUGU [Excluse me!!!! 4 - Jieux - Exclusion 4] (puzzle: Exclusion 4) |  |  | 24.1 | 
